Results from the supplement of paper PMC11246515.
± gives the standard deviation of the averaged measurements.

Assay: total protein half-life in vivo (active degradation + dilution); higher = more stable protein
[1] = wild type E. coli NCM3722, growth: C-lim chemostat, doubling time 3 h
[2] = E. coli NCM3722 delta-clpP delta-lon delta-hslV, growth: N-lim chemostat, doubling time 6 h
[3] = E. coli NCM3722 delta-clpP, growth: N-lim chemostat, doubling time 6 h
[4] = E. coli NCM3722 delta-hslV, growth: N-lim chemostat, doubling time 6 h
[5] = E. coli NCM3722 delta-lon, growth: N-lim chemostat, doubling time 6 h
[6] = E. coli NCM3722 delta-smpB, growth: N-lim chemostat, doubling time 6 h
[7] = wild type E. coli NCM3722, growth: C-lim chemostat, doubling time 6 h
[8] = wild type E. coli NCM3722, growth: C-lim chemostat, doubling time 12 h
[9] = wild type E. coli NCM3722, growth: N-lim chemostat, doubling time 6 h
[10] = wild type E. coli NCM3722, growth: N-lim chemostat, doubling time 12 h
[11] = wild type E. coli NCM3722, growth: P-lim chemostat, doubling time 6 h
[12] = wild type E. coli NCM3722, growth: P-lim chemostat, doubling time 12 h

| Sequence | total protein half-life in vivo [1] | total protein half-life in vivo [2] | total protein half-life in vivo [3] | total protein half-life in vivo [4] | total protein half-life in vivo [5] | total protein half-life in vivo [6] | total protein half-life in vivo [7] | total protein half-life in vivo [8] | total protein half-life in vivo [9] | total protein half-life in vivo [10] | total protein half-life in vivo [11] | total protein half-life in vivo [12] |
| --- | --- | --- | --- | --- | --- | --- | --- | --- | --- | --- | --- | --- |
| MQKREPVIIAPDYTDDELYEWMRQKINAAQDLKWANEARAKQAENLSALEQDITNLEKAAALSIARMITYPR | 3.16 h |  |  |  |  |  |  |  |  |  |  |  |
| MQLKRVAEAKLPTPWGDFLMVGFEELATGHDHVALVYGDISGHTPVLARVHSECLTGDALFSLRCDCGFQLEAALTQIAEEGRGILLYHRQEGRNIGLLNKIRAYALQDQGYDTVEANHQLGFAADERDFTLCADMFKLLGVNEVRLLTNNPKKVEILTEAGINIVERVPLIVGRNPNNEHYLDTKAEKMGHLLNK [P0A7I7] | 2.92 ± 0.095 h | 4.5 ± 0.35 h | 4.52 ± 0.67 h | 4.48 ± 0.35 h | 4.54 ± 0.19 h | 4.54 ± 0.23 h | 5.1 ± 0.3 h | 8.93 ± 0.54 h | 4.27 ± 0.17 h | 6.85 ± 0.2 h | 6.08 ± 0.73 h | 10.3 ± 0.8 h |
| MQLNITGNNVEITEALREFVTAKFAKLEQYFDRINQVYVVLKVEKVTHTSDATLHVNGGEIHASAEGQDMYAAIDGLIDKLARQLTKHKDKLKQH [P0AFX0] | 2.51 ± 0.14 h | 4.19 ± 0.41 h | 3.97 ± 0.51 h | 3.49 ± 0.22 h | 4.08 ± 0.13 h | 3.67 ± 0.043 h | 4.75 ± 0.17 h | 8.14 ± 0.53 h | 3.39 ± 0.5 h | 7.37 ± 0.34 h | 4.21 ± 0.12 h | 7.16 ± 0.65 h |
| MQNITQSWFVQGMIKATTDAWLKGWDERNGGNLTLRLDDADIAPYHDNFHQQPRYIPLSQPMPLLANTPFIVTGSGKFFRNVQLDPAANLGIVKVDSDGAGYHILWGLTNEAVPTSELPAHFLSHCERIKATNGKDRVIMHCHATNLIALTYVLENDTAVFTRQLWEGSTECLVVFPDGVGILPWMVPGTDEIGQATAQEMQKHSLVLWPFHGVFGSGPTLDETFGLIDTAEKSAQVLVKVYSMGGMKQTISREELIALGKRFGVTPLASALAL |  | 3.93 h | 2.62 h | 2.77 ± 0.41 h |  | 2.45 h | 5.1 h | > 16 h |  | 3.97 h | 4.9 h | 10.1 ± 0.11 h |
| MQNKLASGARLGRQALLFPLCLVLYEFSTYIGNDMIQPGMLAVVEQYQAGIDWVPTSMTAYLAGGMFLQWLLGPLSDRIGRRPVMLAGVVWFIVTCLAILLAQNIEQFTLLRFLQGISLCFIGAVGYAAIQESFEEAVCIKITALMANVALIAPLLGPLVGAAWIHVLPWEGMFVLFAALAAISFFGLQRAMPETATRIGEKLSLKELGRDYKLVLKNGRFVAGALALGFVSLPLLAWIAQSPIIIITGEQLSSYEYGLLQVPIFGALIAGNLLLARLTSRRTVRSLIIMGGWPIMIGLLVAAAATVISSHAYLWMTAGLSIYAFGIGLANAGLVRLTLFASDMSKGTVSAAMGMLQMLIFTVGIEISKHAWLNGGNGLFNLFNLVNGILWLSLMVIFLKDKQMGNSHEG [P0AEY8] | 3.11 h |  |  |  |  |  |  |  |  |  | 5.65 ± 0.22 h | 11 ± 2.6 h |
| MQNSALKAWLDSSYLSGANQSWIEQLYEDFLTDPDSVDANWRSTFQQLPGTGVKPDQFHSQTREYFRRLAKDASRYSSTISDPDTNVKQVKVLQLINAYRFRGHQHANLDPLGLWQQDKVADLDPSFHDLTEADFQETFNVGSFASGKETMKLGELLEALKQTYCGPIGAEYMHITSTEEKRWIQQRIESGRATFNSEEKKRFLSELTAAEGLERYLGAKFPGAKRFSLEGGDALIPMLKEMIRHAGNSGTREVVLGMAHRGRLNVLVNVLGKKPQDLFDEFAGKHKEHLGTGDVKYHMGFSSDFQTDGGLVHLALAFNPSHLEIVSPVVIGSVRARLDRLDEPSSNKVLPITIHGDAAVTGQGVVQETLNMSKARGYEVGGTVRIVINNQVGFTTSNPLDARSTPYCTDIGKMVQAPIFHVNADDPEAVAFVTRLALDFRNTFKRDVFIDLVCYRRHGHNEADEPSATQPLMYQKIKKHPTPRKIYADKLEQEKVATLEDATEMVNLYRDALDAGDCVVAEWRPMNMHSFTWSPYLNHEWDEEYPNKVEMKRLQELAKRISTVPEAVEMQSRVAKIYGDRQAMAAGEKLFDWGGAENLAYATLVDEGIPVRLSGEDSGRGTFFHRHAVIHNQSNGSTYTPLQHIHNGQGAFRVWDSVLSEEAVLAFEYGYATAEPRTLTIWEAQFGDFANGAQVVIDQFISSGEQKWGRMCGLVMLLPHGYEGQGPEHSSARLERYLQLCAEQNMQVCVPSTPAQVYHMLRRQALRGMRRPLVVMSPKSLLRHPLAVSSLEELANGTFLPAIGEIDELDPKGVKRVVMCSGKVYYDLLEQRRKNNQHDVAIVRIEQLYPFPHKAMQEVLQQFAHVKDFVWCQEEPLNQGAWYCSQHHFREVIPFGASLRYAGRPASASPAVGYMSVHQKQQQDLVNDALNVE [P0AFG3] | 2.51 ± 0.028 h | 5.96 ± 0.15 h | 6.43 ± 0.87 h | 5.92 ± 0.14 h | 5.36 ± 0.23 h | 4.99 ± 0.18 h | 5.13 ± 0.19 h | 8.677 ± 0.03 h | 5.377 ± 0.027 h | 10.1 ± 0.89 h | 4.72 ± 0.17 h | 9.32 ± 0.68 h |
| MQQQKPLEGAQLVIMTIALSLATFMQVLDSTIANVAIPTIAGNLGSSLSQGTWVITSFGVANAISIPLTGWLAKRVGEVKLFLWSTIAFAIASWACGVSSSLNMLIFFRVIQGIVAGPLIPLSQSLLLNNYPPAKRSIALALWSMTVIVAPICGPILGGYISDNYHWGWIFFINVPIGVAVVLMTLQTLRGRETRTERRRIDAVGLALLVIGIGSLQIMLDRGKELDWFSSQEIIILTVVAVVAICFLIVWELTDDNPIVDLSLFKSRNFTIGCLCISLAYMLYFGAIVLLPQLLQEVYGYTATWAGLASAPVGIIPVILSPIIGRFAHKLDMRRLVTFSFIMYAVCFYWRAYTFEPGMDFGASAWPQFIQGFAVACFFMPLTTITLSGLPPERLAAASSLSNFTRTLAGSIGTSITTTMWTNRESMHHAQLTESVNPFNPNAQAMYSQLEGLGMTQQQASGWIAQQITNQGLIISANEIFWMSAGIFLVLLGLVWFAKPPFGAGGGGGGAH [P0AEJ0] | 3.78 h | 7.36 h | 6.64 ± 0.3 h | 6.52 ± 0.46 h | 5.94 h | 5.55 ± 0.64 h |  | > 16 h |  |  | 5.89 h | 10.4 ± 0.82 h |
